From paper PMC2172336

Target: Kss1-7m3-GBD (Kss1-7m3 fused to the Gal4 DNA-binding domain) (S. cerevisiae) (UniProt P14681)
Test: two-hybrid

Kss1-7m3-GBD (Kss1-7m3 fused to the Gal4 DNA-binding domain) (S. cerevisiae), sequence (P14681 whole entry, the tested form may be a part): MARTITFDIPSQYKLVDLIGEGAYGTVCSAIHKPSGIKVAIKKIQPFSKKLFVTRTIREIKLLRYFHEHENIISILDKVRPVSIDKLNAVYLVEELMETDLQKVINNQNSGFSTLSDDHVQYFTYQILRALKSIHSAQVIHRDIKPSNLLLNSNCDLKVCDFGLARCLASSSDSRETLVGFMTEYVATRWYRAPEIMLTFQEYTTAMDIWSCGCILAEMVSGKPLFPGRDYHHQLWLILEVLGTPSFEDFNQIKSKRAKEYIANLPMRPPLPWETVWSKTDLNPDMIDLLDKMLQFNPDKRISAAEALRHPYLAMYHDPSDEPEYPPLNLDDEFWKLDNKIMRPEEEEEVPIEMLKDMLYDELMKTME

fold above background (two-hybrid reporter): 6 fold
B1: Ste12-GAD (Ste12 fused to the Gal4 transcriptional activation domain) (natural protein)
chain: MKVQITNSRTEEILKVQANNENDEVSKATPGEVEESLRLIGDLKFFLATAPVNWQENQIIRRYYLNSGQGFVSCVFWNNLYYITGTDIVKCCLYRMQKFGREVVQKKKFEEGIFSDLRNLKCGIDATLEQPKSEFLSFLFRNMCLKTQKKQKVFFWFSVAHDKLFADALERDLKRESLNQPSTTKPVNEPALSFSYDSSSDKPLYDQLLQHLDSRRPSSTTKSDNSPPKLESENFKDNELVTVTNQPLLGVGLMDDDAPESPSQINDFIPQKLIIEPNTLELNGLTEETPHDLPKNTAKGRDEEDFPLDYFPVSVEYPTEENAFDPFPPQAFTPAAPSMPISYDNVNERDSMPVNSLLNRYPYQLSVAPTFPVPPSSSRQHFMTNRDFYSSNNNKEKLVSPSDPTSYMKYDEPVMDFDESRPNENCTNAKSHNSGQQTKQHQLYSNNFQQSYPNGMVPGYYPKMPYNPMGGDPLLDQAFYGADDFFFPPEGCDNNMLYPQTATSWNVLPPQAMQPAPTYVGRPYTPNYRSTPGSAMFPYMQSSNSMQWNTAVSPYSSRAPSTTAKNYPPSTFYSQNINQYPRRRTVGMKSSQGNVPTGNKQSVGKSAKISKPLHIKTSAYQKQYKINLETKARPSAGDEDSAHPDKNKEISMPTPDSNTLVVQSEEGGAHSLEVDTNRRSDKNLPDAT
